Our source for the Kd values is paper PMC4963197 (2016).

One may read the Kd as the constant that tells how readily two partners part at equilibrium. Higher therefore signals weaker binding.

Square brackets hold non-standard residues; d marks the D form. Ends that are not written are not given here. pS = N[C@@H](COP(=O)(O)O)C(=O)O

In assay [1] the target is T1, G-actin (UniProt P68135 1-377). Kind of assay: FP; LatB-actin; phospho-S98.
Assay [2] has as its target T1, G-actin. Kind of assay: FP; LatB-actin.

As to {FAM}-LSERKNVLQLKLQQRRTREELVSQGIMPPLK[pS] [FAM-MRTF-A(67–98) phosphorylated at S98], binding in the assay with G-actin [1] was put at a Kd of 630 nM.

As to {FAM}-PNLPPLSERKNVLQLKLQQRRTREELVSQGIMPPLKDPAAFHE [FAM-MRTF-A(62–104) S98D], the Kd with G-actin [2] came to 930 nM.

Turning to {FAM}-PNLPPLSERKNVLQLKLQQRRTREELVSQGIMPPLK[pS]PAAFHE [FAM-MRTF-A(62–104) phosphorylated at S98], the Kd in the assay with G-actin [1] turned out to be 850 nM.

On to {FAM}-LSERKNVLQLKLQQRRTREELVSQGIMPPLKS [FAM-MRTF-A(67–98)], for which the affinity with G-actin [2], expressed as Kd, was 1120 nM.

The molecule {FAM}-PNLPPLSERKNVLQLKLQQRRTREELVSQGIMPPLKSPAAFHE [FAM-MRTF-A(62–104)] returned a Kd in the assay with G-actin [2] of 1050 nM.
